Among the data in PMC11996680 are TMR–dynein landing rate on microtubules (TIRF), dynein–dynactin–HOOK3 with against without GST–KIF1C stalk–GFP values, retold here.

This assay addresses T1, HOOK3-SNAPf labeled with Alexa-647 (human) (UniProt Q86VS8).
T1 sequence (chain, Alexa-647 on the SNAP tag): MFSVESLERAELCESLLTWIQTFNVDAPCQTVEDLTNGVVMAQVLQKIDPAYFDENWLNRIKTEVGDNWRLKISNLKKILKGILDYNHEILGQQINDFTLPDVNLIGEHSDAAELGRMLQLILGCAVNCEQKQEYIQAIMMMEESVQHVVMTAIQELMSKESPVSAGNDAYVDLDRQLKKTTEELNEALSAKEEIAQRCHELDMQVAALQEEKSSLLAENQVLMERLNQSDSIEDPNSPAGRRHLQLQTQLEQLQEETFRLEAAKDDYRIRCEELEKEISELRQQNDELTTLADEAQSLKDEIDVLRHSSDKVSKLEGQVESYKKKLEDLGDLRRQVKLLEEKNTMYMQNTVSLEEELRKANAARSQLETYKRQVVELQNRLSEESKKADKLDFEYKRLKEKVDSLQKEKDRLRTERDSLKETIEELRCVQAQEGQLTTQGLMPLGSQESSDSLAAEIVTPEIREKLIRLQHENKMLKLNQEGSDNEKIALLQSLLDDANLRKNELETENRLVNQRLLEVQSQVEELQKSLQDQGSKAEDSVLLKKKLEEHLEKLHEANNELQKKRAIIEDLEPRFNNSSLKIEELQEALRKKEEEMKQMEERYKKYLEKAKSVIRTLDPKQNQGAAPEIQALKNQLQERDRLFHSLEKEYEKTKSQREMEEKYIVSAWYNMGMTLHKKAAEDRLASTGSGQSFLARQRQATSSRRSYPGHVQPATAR

B1: GST–KIF1C^642–922–GFP (domain or fragment)
chain: EMEKRLQDLENQYRKEKEEADLLLEQQRLYADSDSGDDSDKRSCEESWRLISSLREQLPPTTVQTIVKRCGLPSSGKRRAPRRVYQIPQRRRLQGKDPRWATMADLKMQAVKEICYEVALADFRHGRAEIEALAALKMRELCRTYGKPDGPGDAWRAVARDVWDTVGEEEGGGAGSGGGSEEGARGAEVEDLRAHIDKLTGILQEVKLQNSSKDRELQALRDRMLRMERVIPLAQDHEDENEEGGEVPWAPPEGSEAAEEAAPSDRMPSARPPSPPLSSWE
B1: the TMR–dynein landing rate on microtubules (TIRF), dynein–dynactin–HOOK3 with against without GST–KIF1C stalk–GFP stood at 2.6 fold.
